Measurements as given in US20070265189A1 (published 2007).

Molecular target: T1, Soluble IGF-1R (sIGF-1R), R&D Systems Cat. # 391-GR/CF (UniProt P08069 31-935, limits assumed)
T1 construct: extracellular domain
Assay: phage ELISA

Binder	IGF-1R/IR comparison	Ratio over Background
LGVTDGFYAALGYLIHGVGQF [20E2B-3-D11-IGFR]	7.6	12.2
IWATGDFYRLLSQLVMGRVGT [20E2B-2-B8-IGFR]	7.2	5.7
RCQGTGFYTCIQELIGFGDPD [20E2B-4-H9-IGFR]	5.6	5.2
AQPCGGFYGLLEQLVGRSVCD [20E2B-4-F10-IGFR]	7.8	17.3
QGNVLDFYGWIGRLLAKQGSD [20E2B-3-D12-IGFR]	7.3	6.2
GCAVVEEAERSRGDPFYHKLSELIQGC [B6Hα-3-E7-IR]	4.3	5.6
SGAKVIVVTGDSGDPFYHKLSELLQGS [B6Hα-2-C10-IR]	5.3	5.8
QFYGCLLDLSLGVPSFGWRRRCITA [20C-3-A4-IGFR]	7.6	8.8
AVRATRFDEAFYDWFVRQISDGQGNK [H2CA-4-F6-IGFR]	6.4	7.3
QPDHSYFYSLLQELVGSEERL [20E2B-4-F9-IGFR]	7.7	14.7
VATSQGFYSGLSELLQGGGNV [20E2B-3-E12-IGFR]	7.3	6
RFDPFYSYFVNLLGASA [NNRPγ-4-A7-IR]	4.9	6.3
ICTGQGFYQVLCGLLRGTSAR [20E2B-2-B3-IGFR]	7.4	5.3
VNQSGSIHENFYDWFERQVSHQRGVR [H2CA-4-F10-IGFR]	5.9	5.7
FFYRCLSRLLGGQLGSRLGLSCIGD [20C-3-E4-IGFR]	6	7.7

Results, then the binder that gave them:

IGF-1R/IR comparison	Ratio over Background	Binder
6.2	20.4	ASSASGFYELLQRLAGLGLEV [20E2B-3-C4-IGFR]
5.9	5.3	PAGPCGFYCGLGLLLHGDQSP [20E2B-4-H8-IGFR]
6	10.9	IIGGFYSYFNSVLRLGT [NNRPγ-4-A1-IR]
7.1	10	EGSGFYGYFFSLLGLQG [NNRPγ-4-A9-IR]
6.9	17.8	DSVGDNFYQLLESLVGGHGVG [20E2B-3-D6-IGFR]
6.7	6.8	SAAQLFFQESFYDWFLRQVAESSQPN [H2CA-4-F11-IGFR]
6.7	6.7	RGIVAMVEATEVGSDHDPFYHKLSELVQGS [B6Hα-2-C7-IR]
4.4	4.4	GRTMAVMAAGGPDDPFYHKLSELVQGG [B6Hα-2-D6-IR]
4.8	5.3	RGKTAAVIVGRPADPFYHKLSELLQGG [B6Hα-3-E8-IR]
4.6	8.8	GCVVEWQKWHGASDPFYHKLSELGGCS [B6Hα-3-F10-IR]
5.1	5.4	VGTVAGFYDAIAQLVARASRV [20E2A-3-C7-IGFR]
6.7	6.1	LSSDGQFYRALNLLLQGSAGR [20E2B-2-B7-IGFR]
5	4.4	TLRSPTFYDWLEMVLTHGQGG [20E2B-1-A8-IGFR]
7	4.5	RQGTGSFYLMLEQLLVGARGP [20E2B-4-G11-IGFR]

Molecular target: T2, soluble human insulin receptor-immunoglobulin heavy chain chimera (sIR-Fc; Bass et al., 1996) (human, UniProt P06213 28-956, limits assumed)
T2 construct: extracellular domain; also called soluble IR (Bass construct); not shown: immunoglobulin heavy chain constant domains
Assay: phage ELISA

Binder	IR/IGF-1R comparison	Ratio over Background
LGVTDGFYAALGYLIHGVGQF [20E2B-3-D11-IGFR]	0.1	1.6
IWATGDFYRLLSQLVMGRVGT [20E2B-2-B8-IGFR]	0.1	0.8
RCQGTGFYTCIQELIGFGDPD [20E2B-4-H9-IGFR]	0.2	0.9
AQPCGGFYGLLEQLVGRSVCD [20E2B-4-F10-IGFR]	0.1	2.2
QGNVLDFYGWIGRLLAKQGSD [20E2B-3-D12-IGFR]	0.1	0.9
GCAVVEEAERSRGDPFYHKLSELIQGC [B6Hα-3-E7-IR]	0.2	1.3
SGAKVIVVTGDSGDPFYHKLSELLQGS [B6Hα-2-C10-IR]	0.2	1.1
QFYGCLLDLSLGVPSFGWRRRCITA [20C-3-A4-IGFR]	0.1	1.2
AVRATRFDEAFYDWFVRQISDGQGNK [H2CA-4-F6-IGFR]	0.2	1.1
QPDHSYFYSLLQELVGSEERL [20E2B-4-F9-IGFR]	0.1	1.9
VATSQGFYSGLSELLQGGGNV [20E2B-3-E12-IGFR]	0.1	0.8
RFDPFYSYFVNLLGASA [NNRPγ-4-A7-IR]	0.2	1.3
ICTGQGFYQVLCGLLRGTSAR [20E2B-2-B3-IGFR]	0.1	0.7
VNQSGSIHENFYDWFERQVSHQRGVR [H2CA-4-F10-IGFR]	0.2	1
FFYRCLSRLLGGQLGSRLGLSCIGD [20C-3-E4-IGFR]	0.2	1.3

Results, then the binder that gave them:

IR/IGF-1R comparison	Ratio over Background	Binder
0.2	3.3	ASSASGFYELLQRLAGLGLEV [20E2B-3-C4-IGFR]
0.2	0.9	PAGPCGFYCGLGLLLHGDQSP [20E2B-4-H8-IGFR]
0.2	1.8	IIGGFYSYFNSVLRLGT [NNRPγ-4-A1-IR]
0.1	1.4	EGSGFYGYFFSLLGLQG [NNRPγ-4-A9-IR]
0.1	2.6	DSVGDNFYQLLESLVGGHGVG [20E2B-3-D6-IGFR]
0.1	1	SAAQLFFQESFYDWFLRQVAESSQPN [H2CA-4-F11-IGFR]
0.1	1	RGIVAMVEATEVGSDHDPFYHKLSELVQGS [B6Hα-2-C7-IR]
0.2	1	GRTMAVMAAGGPDDPFYHKLSELVQGG [B6Hα-2-D6-IR]
0.2	1.1	RGKTAAVIVGRPADPFYHKLSELLQGG [B6Hα-3-E8-IR]
0.2	1.9	GCVVEWQKWHGASDPFYHKLSELGGCS [B6Hα-3-F10-IR]
0.2	1.1	VGTVAGFYDAIAQLVARASRV [20E2A-3-C7-IGFR]
0.1	0.9	LSSDGQFYRALNLLLQGSAGR [20E2B-2-B7-IGFR]
0.2	0.9	TLRSPTFYDWLEMVLTHGQGG [20E2B-1-A8-IGFR]
0.1	0.6	RQGTGSFYLMLEQLLVGARGP [20E2B-4-G11-IGFR]
